# Values of other authors, collected in article PMC6236854 (Molecular Imaging, 2018).
# Ends that are not written are not given here.
# Key:
# [1] = not given; remark: listed apart in the source
# GHSR1a = conditions: read-out: half-maximal inhibitory concentration (IC50), binding affinity
substance,measurement,setting,value
"ghrelin (GSSFLSPEHQRVQQRKESKKPPAKLQPR; ends and bridges not checked; UniProt Q9UBU3 24-51, looked up) [human ghrelin]",in vitro half-life in human serum,,4 h
same,in vitro half-life in rat serum,[1],0.5 h
same,IC50,GHSR1a,7.63 nM
